{"source": "paper doi:10.1101/487454", "target": "Full-length human KLHL41 GST fusion protein (human) (UniProt O60662)", "sequence (O60662 whole entry, the tested form may be a part)": "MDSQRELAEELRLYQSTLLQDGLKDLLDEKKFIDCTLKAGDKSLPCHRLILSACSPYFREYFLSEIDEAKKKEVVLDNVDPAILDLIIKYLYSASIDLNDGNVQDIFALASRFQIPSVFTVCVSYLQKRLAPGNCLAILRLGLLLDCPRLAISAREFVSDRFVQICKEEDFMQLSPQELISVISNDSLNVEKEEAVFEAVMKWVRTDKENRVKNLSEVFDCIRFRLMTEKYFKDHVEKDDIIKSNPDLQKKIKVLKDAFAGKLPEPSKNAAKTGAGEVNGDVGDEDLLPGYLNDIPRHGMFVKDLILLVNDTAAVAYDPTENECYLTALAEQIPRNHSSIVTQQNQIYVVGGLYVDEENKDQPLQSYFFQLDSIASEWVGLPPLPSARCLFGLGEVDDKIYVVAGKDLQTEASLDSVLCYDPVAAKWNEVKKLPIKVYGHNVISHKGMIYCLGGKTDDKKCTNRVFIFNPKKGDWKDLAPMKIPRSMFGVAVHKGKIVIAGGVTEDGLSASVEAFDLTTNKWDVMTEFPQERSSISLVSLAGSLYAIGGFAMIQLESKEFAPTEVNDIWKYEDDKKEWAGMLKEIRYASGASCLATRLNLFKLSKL", "assay": "AlphaScreen or HTRF"}
{"substance": "Human NEB (aa 5647-5849) MBP-HA fusion protein (from UniProt P20929 5647-5849) (domain or fragment)", "values": [{"measurement": "delta F% (HTRF, 10nM KLHL41 and 100nM NEB)", "result": 950, "unit": "%"}]}
